{"source": "patent US20250255902A1", "about": "(published 2025)", "assay_in_all_cases": "BLI", "key": {"[1]": {"molecular_target": "Gly2-1-F2"}, "[2]": {"molecular_target": "TEA1-E8"}, "[3]": {"molecular_target": "Gly3-2-C1"}, "[4]": {"molecular_target": "Gly1-2-D4"}}, "data": [{"binder": "MSLN (other) EVEKTACPSGKKAREIDESLIFYKKWELEACVDAALLATQMDRVNAIPFTYEQLDVLKHKLDELYPQGYPESVIQHLGYLFLKMSPEDIRKWNVTSLETLKALLEVNKGHEMSPQVATLIDRFVKGRGQLDKDTLDTLTAFYPGYLCSLSPEELSSVPPSSIWAVRPQDLDTCDPRQLDVLYPKARLAFQNMNGSEYFVKIQSFLGGAPTEDLKALSQQNVSMDLATFMKLRTDAVLPLTVAEVQKLLGPHVEGLKAEERHRPVRDWILRQRQDDLDTLGLGLQG", "values": [{"measurement": "Kd", "setting": "[1]", "result": "< 0.001", "unit": "nM"}, {"measurement": "Kd", "setting": "[2]", "result": 0.166, "unit": "nM"}, {"measurement": "Kd", "setting": "[3]", "result": 4.88, "unit": "nM"}, {"measurement": "Kd", "setting": "[4]", "result": 4.46, "unit": "nM"}]}]}
